The record followed here is paper PMC8481291 (Nature Communications, 2021).

Several values for one entry are separate records, joined by “and”; a condition that tells them apart may be missing. Equal entries are not always repeated.

Data set [1] concerns the target tES–F116H(+) (Archaeoglobus fulgidus). Nature of the data set: AUC; sedimentation of tES–F116H/POI samples (1 µM) in PBS, 20 °C, absorbance at 280 nm; POI loaded into tES by pH shift 5.8 to 8.0 and dialysis.
Data set [2] has the same target. As to the kind of experiment: AUC.
The target of data set [3] is tES–F116H(+/–) (Archaeoglobus fulgidus). Nature of the data set: AUC.
The target of data set [4] is tES–F116H(–) (Archaeoglobus fulgidus). As to the kind of experiment: AUC.
For data set [5], the target named is tES–F116H(+) (Archaeoglobus fulgidus). As to the kind of experiment: AUC. The source holds these as a separate data set.
The data set “AUC” concerns the molecule itself. As to the kind of experiment: AUC.

With “Renilla luciferin 2-monooxygenase (from UniProt P27652 1-311) (enzyme)”, the stoichiometry N (rLuc per tES shell) in data set [1] was 2 and 1. As to “Tumor protein 53, stabilized clone (from UniProt P04637 1-393) (natural protein)”, the stoichiometry N (p53 per tES shell) in data set [2] and in data set [3] was 1 in each case.

In turn, rFasxiator (natural protein) came in with a stoichiometry N (rFasxiator per tES shell) in data set [4] of 3.

B1: Shrimp alkaline phosphatase (enzyme, UniProt Q9BHT8 1-475, looked up)
chain: KAYWNKDAQDALDKQLGIKLREKQAKNVIFFLGDGMSLSTVTAARIYKGGLTGKFEREKISWEEFDFAALSKTYNTDKQVTDSAASATAYLTGVKTNQGVIGLDANTVRTNCSYQLDESLFTYSIAHWFQEAGRSTGVVTSTRVTHATPAGTYAHVADRDWENDSDVVHDREDPEICDDIAEQLVFREPGKNFKVIMGGGRRGFFPEEALDIEDGIPGEREDGKHLITDWLDDKASQGATASYVWNRDDLLAVDIRNTDYLMGLFSYTHLDTVLTRDAEMDPTLPEMTKVAIEMLTKDENGFFLLVEGGRIDHMHHANQIRQSLAETLDMEEAVSMALSMTDPEETIILVTADHGHTLTITGYADRNTDILDFAGISDLDDRRYTILDYGSGPGYHITEDGKRYEPTEEDLKDINFRYASAAPKHSVTHDGTDVGIWVNGPFAHLFTGVYEENYIPHALAYAACVGTGRTFCDEK
notes: also called sAP; AP
The molecule B1 registered a stoichiometry N (sAP per tES shell) in data set [5] of 1. In addition, the “stoichiometry N” value in the data set “AUC” is 2.

What is called stoichiometry N is a count of units in the complex or per binding partner.
